Blank lines part the entries; values can stand above or below the substance they belong to.
Experiments:
[1] = biological target: S100P (Homo sapiens) (UniProt P25815); details: cited from earlier work
[2] = biological target: IFNAR2 ECD (Homo sapiens) (UniProt P48551); details: cited from earlier work
[3] = biological target: recombinant human interferon alfa-2b (human) (UniProt P01563); assay: SPR; IFN-α immobilised by amine coupling; S100 proteins as analyte; 25 °C; 10 mM HEPES, 150 mM NaCl, 0.01% TWEEN 20, pH 7.4
[4] = biological target: Tag7 (Homo sapiens) (UniProt O75594); details: cited from earlier work

Substance: IFN-β (from UniProt P01574)
Kd [1]: 0.3 nM
Kd [2]: < 0.1 nM

Kd [3]: > 10000 nM
Substance: recombinant human S100A1 (from UniProt P23297 2-94) (natural protein)

Substance: S100A4 (from UniProt P26447)
Kd [4]: 1 nM

Kd [3]: > 10000 nM
Substance: recombinant human S100A4 (from UniProt P26447 1-101) (natural protein)
